These are literature values, as cited in publication PMC8193598.

“And” between values parts separate entries of the source, which are not always exact repeats. Identical values can stand only once. Like-named read-outs stand apart in the source and are kept apart here.

Series [1] addresses SARS-CoV-2 S1 CendR peptide CendR peptide (SARS-CoV-2) (UniProt P0DTC2).
Series [2] deals with spike protein (SARS-CoV-2) (UniProt P0DTC2).
For series [3] the target is unchanged. This is another data set of the same source.

KREMEN1, sequence (Q96MU8 20-392): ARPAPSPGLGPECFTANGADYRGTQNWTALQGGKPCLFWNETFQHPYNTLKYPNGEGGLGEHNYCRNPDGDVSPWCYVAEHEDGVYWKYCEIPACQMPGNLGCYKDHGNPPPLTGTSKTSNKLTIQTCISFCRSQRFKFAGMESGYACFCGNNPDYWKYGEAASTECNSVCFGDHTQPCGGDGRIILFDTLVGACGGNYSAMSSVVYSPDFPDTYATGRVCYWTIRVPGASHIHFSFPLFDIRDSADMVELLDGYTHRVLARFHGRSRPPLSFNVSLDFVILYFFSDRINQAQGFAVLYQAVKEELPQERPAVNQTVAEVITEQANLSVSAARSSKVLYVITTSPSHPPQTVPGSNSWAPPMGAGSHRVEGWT
ASGR1, sequence (P07306 whole entry): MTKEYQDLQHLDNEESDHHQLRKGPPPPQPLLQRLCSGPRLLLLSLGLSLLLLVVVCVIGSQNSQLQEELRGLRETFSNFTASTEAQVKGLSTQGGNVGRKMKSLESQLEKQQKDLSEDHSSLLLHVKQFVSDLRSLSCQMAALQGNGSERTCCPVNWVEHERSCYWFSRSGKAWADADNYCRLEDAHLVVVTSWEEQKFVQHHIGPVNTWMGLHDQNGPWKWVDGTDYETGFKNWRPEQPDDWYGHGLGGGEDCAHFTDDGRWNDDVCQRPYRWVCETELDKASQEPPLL

What is called Kd is the constant that tells how readily two partners part at equilibrium. For “neuropilin-1 coagulation factor domain (from UniProt O14786)”, in series [1], the Kd is 20.3 µM and 13 µM. Turning to KREMEN1 (from UniProt Q96MU8), the Kd in series [2] is 0.0193 µM. As for ASGR1 (from UniProt P07306), the Kd in series [3] is 0.0948 µM.
